As a reminder, the Kd is the concentration at which binding is half-saturated. Low values mean higher affinity, high ones lower affinity. One may read the stoichiometry N as the number of molecules, sites or subunits per partner or assembly.

Assay [1] addresses taxol stabilized microtubules (UniProt Q6B856). Kind of assay: co-sedimentation.
The target in assay [2] is human Ska1 complex containing GFP-Ska1 (human) (UniProt Q96BD8). Kind of assay: single-molecule TIRF microscopy, intensity distribution and photobleaching steps.

Sequence of human Ska1 complex containing GFP-Ska1 (Q96BD8 whole entry): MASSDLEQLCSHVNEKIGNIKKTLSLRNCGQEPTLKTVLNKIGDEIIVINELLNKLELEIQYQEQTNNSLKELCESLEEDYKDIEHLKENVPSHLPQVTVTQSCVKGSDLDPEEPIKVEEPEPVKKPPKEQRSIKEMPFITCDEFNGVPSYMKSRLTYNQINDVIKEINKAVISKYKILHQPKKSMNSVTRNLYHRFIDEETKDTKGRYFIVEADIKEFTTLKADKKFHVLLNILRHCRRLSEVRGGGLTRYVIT
Sequence of human Ska1 complex containing GFP-Ska1 (Q8WVK7 whole entry): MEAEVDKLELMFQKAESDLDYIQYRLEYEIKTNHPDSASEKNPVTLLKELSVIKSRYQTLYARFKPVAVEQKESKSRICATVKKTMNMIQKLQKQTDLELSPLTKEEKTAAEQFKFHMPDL
Sequence of human Ska1 complex containing GFP-Ska1 (Q8IX90 whole entry): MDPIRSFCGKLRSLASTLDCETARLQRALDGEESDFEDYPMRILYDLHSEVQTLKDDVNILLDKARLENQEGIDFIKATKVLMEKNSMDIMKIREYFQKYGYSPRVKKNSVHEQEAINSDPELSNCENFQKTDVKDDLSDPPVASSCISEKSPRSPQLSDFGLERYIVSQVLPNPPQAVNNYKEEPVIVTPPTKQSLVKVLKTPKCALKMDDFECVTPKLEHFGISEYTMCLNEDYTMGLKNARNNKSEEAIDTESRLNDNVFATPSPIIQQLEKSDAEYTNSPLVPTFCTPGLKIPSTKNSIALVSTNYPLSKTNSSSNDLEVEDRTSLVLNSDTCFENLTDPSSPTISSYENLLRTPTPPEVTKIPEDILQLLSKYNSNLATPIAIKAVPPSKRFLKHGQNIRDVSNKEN
Sequence of human Ska1 complex (Q96BD8 whole entry): as the sequence (Q96BD8 whole entry) above
Sequence of human Ska1 complex (Q8WVK7 whole entry): as the sequence (Q8WVK7 whole entry) above
Sequence of human Ska1 complex (Q8IX90 whole entry): as the sequence (Q8IX90 whole entry) above

As to “C. elegans Ska1 complex (from UniProt Q9XWS0 1-243)”, in assay [1], the Kd is 11.3 µM. On the same count and under the same terms, the result for “human Ska1 complex (from UniProt Q96BD8 1-255; Q8WVK7 1-121; Q8IX90 1-412)” reads 2.4 µM. “human Ska1 complex containing GFP-Ska1 (from UniProt Q96BD8 1-255; Q8WVK7 1-121; Q8IX90 1-412)”: the stoichiometry N in assay [2] worked out at 2.

Values taken from article PMC3500403.
